From the supplement of paper PMC9170038

Test system: MS2 coat protein
Experiment: apparent KD of MS2 coat protein; designed switch direction (-1 OFF switch, 1 ON switch): -1; higher = weaker reporter binding
Method in brief: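 SNAP-549-labelled MS2 coat protein was titrated, doubling from 0.7 or 1.5 nM to 3 µM, over designed RNA switches transcribed on Illumina chips by stalled E. coli RNA polymerase. Runs were done without input, with 200 uM small-molecule ligand, or with an oligonucleotide input. Apparent KD is the per-design median over clusters of curve-fitted normalised fluorescence.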

[1] = Eterna round: R95, input ligand: microRNA oligo, concentration not stated
[2] = input ligand: microRNA oligo, concentration not stated
[3] = Eterna round: R95, input ligand: FMN 200 uM
[4] = Eterna round: R95, input ligand: none

AGAAGGAAAGUGAGGAUAUGCUCUACCUCGGUAGAGCAGAAGGCACAUGAGGAUCACCCAUGUGACUCCUCAUU [Omei Ex4B B26] (Eterna round: R97, puzzle: Brourd's mod of Exclusion 4)
apparent KD of MS2 coat protein (input ligand: FMN 200 uM): 29.2 nM | apparent KD of MS2 coat protein (input ligand: none): 19.5 nM

CUUAUGUGAGGAUAUCAGUAGUAAUACAAUAGUAUUACUACUGAGAAGGCACAUGAGGAUCACCCAUGUUCCUU [Exclusion 4 - Mod Omei Ex4 344 mod v.1] (puzzle: Exclusion 4)
apparent KD of MS2 coat protein [1]: 27.5 nM

CUCAUGCCUGAGGAUAUGCUGUACAAAAGUACUGCAGAAGGUAGAACAUGAGGAUCACCCAUGUGGCGAAAGCC [Omei Ex G3] (Eterna round: R97, puzzle: Exclusion 6)
apparent KD of MS2 coat protein (input ligand: FMN 200 uM): 171 nM | apparent KD of MS2 coat protein (input ligand: none): 45.8 nM

GAGUUACAUGAGGAUCACCCAUGUGAGGAUAUGAGUCAGUCACGGUGACGUGGCUGACUCAGAAGGCACUAUGG [Mat - Exclusion 1 - JL Mod - D43] (Eterna round: R97, puzzle: Exclusion 1)
apparent KD of MS2 coat protein (input ligand: FMN 200 uM): 52.8 nM | apparent KD of MS2 coat protein (input ligand: none): 233 nM

UUUUUAUAACAAGGAUAUACUAAACAUGAGGAUCACCCAUGUAAUAUUAUGAGUGAGAGAGAUAAGUAGAAGGUGUAUUAUUUU [JMF solution 3] (Eterna round: R96, puzzle: Exclusion NG 2)
apparent KD of MS2 coat protein [2]: 99.6 nM

UCUAUGAUGCGAGGAUAUCGACCAUUCCUCUUUACAUGAGGAUCACCCAUGUUCGUACGCUACAACGAGAAGGCGCACUAAGAU [JR_ExcNG2_Sub059] (Eterna round: R96, puzzle: Exclusion NG 2)
apparent KD of MS2 coat protein (input ligand: FMN 200 uM): 438 nM | apparent KD of MS2 coat protein [2]: 101 nM | apparent KD of MS2 coat protein (input ligand: none): 194 nM

UGUACGAUGCGUGCUGACAUGCGUCGUGCAGCAAGCUUUACAUGAGGAUCACCCAUGUCCUCACUUGCUCGUCUUGU (puzzle: Sensor v3, turn-off variant 2)
apparent KD of MS2 coat protein [3]: 643 nM | apparent KD of MS2 coat protein [1]: 21.3 nM | apparent KD of MS2 coat protein [4]: 490 nM

UAAUAAUAGUCAGGAUAUAGUUAUUAUAAUAUACUAGAAGGGACACAUGAGGAUCACCCAUGUUUUAUAAUUUGUAAUUUAAAU [5th something] (Eterna round: R96, puzzle: Exclusion NG 1)
apparent KD of MS2 coat protein [2]: 16.2 nM

UUUAAUUUUUUUUUUUUACAAGCUUUUUGCUCGUCUUAUACAUGAGGAUCACCCAUGUGGAUGGGAAGUAAAUUAUC [JMF 52] (puzzle: Sensor v3, turn-off variant 2)
apparent KD of MS2 coat protein [3]: 23.9 nM | apparent KD of MS2 coat protein [1]: 59.2 nM | apparent KD of MS2 coat protein [4]: 20.9 nM

UUCCACGAUGUCAGGAUAUGUAGGGCCGCUGCUAGGCAGAAGGGACAUGAGGAUCACCCAUGUACUGACUACUG [Eternabot (L2) Solution 84] (Eterna round: R97, puzzle: Brourd's mod of Exclusion 4)
apparent KD of MS2 coat protein (input ligand: FMN 200 uM): 78.2 nM | apparent KD of MS2 coat protein (input ligand: none): 69.6 nM

GGAUCGAGUGUGAGGAUAUGCUGGUCCUUGGAUCAGCAGAAGGCACAUGAGGAUCACCCAUGUGACUAAGAUCC [Eli bmx4 4.75] (Eterna round: R97, puzzle: Brourd's mod of Exclusion 4)
apparent KD of MS2 coat protein (input ligand: FMN 200 uM): 322 nM | apparent KD of MS2 coat protein (input ligand: none): 29.8 nM

CACGGGUAAGGAUAUACAAGUGAGAAAGGUAUGUGCAAAUAACAUGAGGAUCACCCAUGUAGAAGGUACGCCGG [Cearxeen] (puzzle: Exclusion 2)
apparent KD of MS2 coat protein [3]: 27.1 nM | apparent KD of MS2 coat protein [1]: 16.9 nM | apparent KD of MS2 coat protein [4]: 14.9 nM

GGGCCCGGUGUGAGGAUAUCGGGCUCGAAAGGGCUCGAGAAGGCACAUGAGGAUCACCCAUGUAAGCCGGGCCC [-42.6, -40.5 kcal, A 23%, 4-0] (Eterna round: R97, puzzle: Brourd's mod of Exclusion 4)
apparent KD of MS2 coat protein (input ligand: FMN 200 uM): 15.2 nM | apparent KD of MS2 coat protein (input ligand: none): 18.6 nM

UAUGUUGUUGUGAGGAUAUACUUAGUUUGACCGUAGUAGAAGGCACAUGAGGAUCACCCAUGUAGAUGUUUGGU [JR_BME4_Sub005] (puzzle: Brourd's mod of Exclusion 4)
apparent KD of MS2 coat protein [1]: 14.9 nM

CCGUUCCGUGUAGGAUAUUGGCCCACCACGGGCCGAGAAGGACAUGAGGAUCACCCAUGUAUGCUAUUAUCGCGCGUGGCGCCC [Design 100] (Eterna round: R96, puzzle: Exclusion NG 1)
apparent KD of MS2 coat protein (input ligand: FMN 200 uM): 148 nM | apparent KD of MS2 coat protein [2]: 14.8 nM | apparent KD of MS2 coat protein (input ligand: none): 24.2 nM

GUAAAGGUAGGAUAUACGAAGAAAAAGGGUAGAAUAAUAACACAUGAGGAUCACCCAUGUAGAAGGACCAAAUG [Mat - Exclusion 2 - Mod of my Tesla design - D5] (puzzle: Exclusion 2)
apparent KD of MS2 coat protein [3]: 65.7 nM | apparent KD of MS2 coat protein [1]: 26.5 nM | apparent KD of MS2 coat protein [4]: 32.4 nM

GGCCCUAAGGUCAGAUCCACAAGCUUUUUGCUCGUUUUAACAUGAGGAUCACCCAUGUCUAGUGGAUUUGAUCCUCA [Sensor v3, turn-off variant 2 (MOD of Indiso v.5)] (puzzle: Sensor v3, turn-off variant 2)
apparent KD of MS2 coat protein [3]: 36.2 nM | apparent KD of MS2 coat protein [1]: 14.5 nM | apparent KD of MS2 coat protein [4]: 41.3 nM

UUUUAACAUGAGGAUCACCCAUGUGAGGAUAUCGAAAUUUAUAUUUAUAUUUAUUAAUCGAGAAGGCACAUUUU [JMF 100] (puzzle: Exclusion 1)
apparent KD of MS2 coat protein [1]: 121 nM

GACUGCCGAGGAUAUACAUGAGGAUCACCCAUGUGCUUCAGCAUCGAAAGAUGCAUGGGUAGAAGGCGGUAGUC [LRO-Excl3-11] (puzzle: Exclusion 3)
apparent KD of MS2 coat protein [1]: 25.4 nM

AAGUAGUGUGUGAGGAUAUUGGUGGAAUGACACAUUAAGAAGGCACAUGAGGAUCACCCAUGUGGGUAGACACG [Brourd's EX4 #21] (Eterna round: R97, puzzle: Brourd's mod of Exclusion 4)
apparent KD of MS2 coat protein (input ligand: FMN 200 uM): 335 nM | apparent KD of MS2 coat protein (input ligand: none): 27.8 nM

AGUUGGCGAGGAUAUACAUGAGGAUCACCCAUGUGAAUAAUAAUAGUGAGGAAGAAAAGUAGAAGGCGCUGACA [Mat - Exclusion 3 - Mod of Salish D35] (puzzle: Exclusion 3)
apparent KD of MS2 coat protein [1]: 46.1 nM

UAAGAUUACCGAGGAUAUGCUGGUUUAUCUCAAGCAGAAGGCGGACUCAACAUGAGGAUCACCCAUGUAAGACGGGUACUAGAU [Ex NG1 #12] (Eterna round: R96, puzzle: Exclusion NG 1)
apparent KD of MS2 coat protein (input ligand: FMN 200 uM): 61.5 nM | apparent KD of MS2 coat protein [2]: 69.1 nM | apparent KD of MS2 coat protein (input ligand: none): 97.1 nM

GCCACGGGAGGAUAUACAUAGGAGUUCUCUUCCUGCUCGAGACAUGAGGAUCACCCAUGUAGAAGGCCCGCUGC [Eternabot (L2) Solution 17] (Eterna round: R97, puzzle: Exclusion 2)
apparent KD of MS2 coat protein (input ligand: FMN 200 uM): 62.2 nM | apparent KD of MS2 coat protein (input ligand: none): 385 nM

AAGAUGCGGAUAGGAUAUGGAAAAAAAAAAAGACCAGAAGGAUUGGUCAUAUAACAUGAGGAUCACCCAUGUAUAUGUUGUGAA [AK ExNG1-3] (Eterna round: R96, puzzle: Exclusion NG 1)
apparent KD of MS2 coat protein (input ligand: FMN 200 uM): 17.8 nM | apparent KD of MS2 coat protein [2]: 21.3 nM | apparent KD of MS2 coat protein (input ligand: none): 19.3 nM

GAUUAUGCGAGCUUUAGGGACAUGAGGAUCACCCAUGUUCGUCUUAUUAGUCUGGAUGCACUGACAUACCUAAAUCU [JMF 81] (puzzle: Sensor v3, turn-off variant 1)
apparent KD of MS2 coat protein [3]: 18.4 nM | apparent KD of MS2 coat protein [1]: 25.2 nM | apparent KD of MS2 coat protein [4]: 19.1 nM

CUUUACAUGCUGAGAUCCUACAUGAGGAUCACCCAUGUGGUCCGGUGACGUGAGUCACCGGACUUAGCUCGUCUUGU [salish99_S_TOV1_R5_098] (Eterna round: R97, puzzle: Sensor, turn-off variant 1)
apparent KD of MS2 coat protein (input ligand: FMN 200 uM): 169 nM | apparent KD of MS2 coat protein (input ligand: none): 336 nM

GAGUGACAUGAGGAUCACCCAUGUAAGGAUAUACGGUUGGUAGAGAGAGGGAGAAAGGGUAGAAGGUACGAAGG [JR_Exclu1_Sub053] (puzzle: Exclusion 1)
apparent KD of MS2 coat protein [3]: 45.5 nM | apparent KD of MS2 coat protein [1]: 44.1 nM | apparent KD of MS2 coat protein [4]: 101 nM

AGCGUGUGAGGAUAUCGAUAUUGGAAGUCUAGGUCUGAGCGCGAGAAGGCACAUGAGGAUCACCCAUGUAAGGG [Teceor] (Eterna round: R97, puzzle: Exclusion 4)
apparent KD of MS2 coat protein (input ligand: FMN 200 uM): 516 nM | apparent KD of MS2 coat protein (input ligand: none): 375 nM

AAAUUGGUAGAGGAUAUCGGACAGGAUUUACUGCGAGAAGGCUGCACAUGAGGAUCACCCAUGUUUUGUUGCGA [EX6 #34] (Eterna round: R97, puzzle: Exclusion 6)
apparent KD of MS2 coat protein (input ligand: FMN 200 uM): 23.9 nM | apparent KD of MS2 coat protein (input ligand: none): 25.7 nM

GCGAGGUUAGGAUAUGCUGGCGUGGACUUGAGGAUCACCCAAGUGACUGCGGGCUAGGGCGCAGAAGGGACAAAAU [Usti] (Eterna round: R97, puzzle: Exclusion 5)
apparent KD of MS2 coat protein (input ligand: FMN 200 uM): 45.1 nM | apparent KD of MS2 coat protein (input ligand: none): 45.6 nM

AUUUUGUGAGGAUAUUAGUAGUAAAUAAAUAAAAUUAUUACUGAGAAGGCACAUGAGGAUCACCCAUGUUCCUA [Salish 062 v7] (Eterna round: R97, puzzle: Exclusion 4)
apparent KD of MS2 coat protein (input ligand: FMN 200 uM): 193 nM | apparent KD of MS2 coat protein (input ligand: none): 19 nM

AAUAGCUAAGGAUAUACAUGAGGAUCACCCAUGUAAAACACUACUUGGAACCGCCUCGGUAGAAGGUAGAAAAU [Arbean] (puzzle: Exclusion 3)
apparent KD of MS2 coat protein [1]: 21.5 nM

GUCGAUGUCAAAGGAUAUCAGCACGUGUAGUGCUGAGAAGGUUGAACAUGAGGAUCACCCAUGUAGAUCAUUAACGACUUAAUU [ENG1/10-A3] (Eterna round: R96, puzzle: Exclusion NG 1)
apparent KD of MS2 coat protein (input ligand: FMN 200 uM): 56.1 nM | apparent KD of MS2 coat protein [2]: 20.3 nM | apparent KD of MS2 coat protein (input ligand: none): 22.9 nM

AAAUGGCAAGGAUAUACAGUAAUGAGGCUUAUGUCCGCUAAACAUGAGGAUCACCCAUGUAGAAGGUGCAAAGA [Maarear] (Eterna round: R97, puzzle: Exclusion 2)
apparent KD of MS2 coat protein (input ligand: FMN 200 uM): 69.1 nM | apparent KD of MS2 coat protein (input ligand: none): 42.4 nM

GGAAAGCAAGGAUAUACGAGGAGAAGGAGGAAAGUUAAAGGACAUGAGGAUCACCCAUGUAGAAGGUGCGAGAG [JR_Exclu2_Sub041] (puzzle: Exclusion 2)
apparent KD of MS2 coat protein [3]: 30 nM | apparent KD of MS2 coat protein [1]: 30.7 nM | apparent KD of MS2 coat protein [4]: 34.6 nM
